Reference: the supplement of paper PMC9170038

System: MS2 coat protein
Assay: apparent KD of MS2 coat protein; designed switch direction (-1 OFF switch, 1 ON switch): -1; higher = weaker reporter binding
Method in brief: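 Designed RNA switches were transcribed on Illumina chips by stalled E. coli RNA polymerase and titrated with SNAP-549-labelled MS2 coat protein from 0.7 or 1.5 nM, doubling to 3 µM. Step length ran from 0.8–1.5 h at the lowest concentration to 10–20 min at the highest. The apparent KD is the median over clusters for each design, from curve-fitted normalised cluster fluorescence.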

[1] = Eterna round: R95, input ligand: FMN 200 uM
[2] = Eterna round: R95, input ligand: microRNA oligo, concentration not stated
[3] = Eterna round: R95, input ligand: none
[4] = input ligand: microRNA oligo, concentration not stated

Sequence | apparent KD of MS2 coat protein [1] | apparent KD of MS2 coat protein [2] | apparent KD of MS2 coat protein [3] | apparent KD of MS2 coat protein (input ligand: FMN 200 uM) | apparent KD of MS2 coat protein (input ligand: none) | apparent KD of MS2 coat protein [4]
GCCAGAGCAGGAUAUUCAAUAUCUCACAUGAGGAUCACCCAUGUCCAUCGAAAGAUGGAGGGAGAAGGGCUCUGGC [Mat - Exclusion 5 - Eli mod - D92] (puzzle: Exclusion 5) | 37.3 nM | 45.5 nM | 64.7 nM |  |  | 
GCCAGAGCAGGAUAUUCAAUAUUCCACAUGAGGAUCACCCAUGUCCUGCGAAAGCAGGAGGGAGAAGGGCUCUGGC [Mat - Exclusion 5 - Eli mod - D91] (puzzle: Exclusion 5) |  | 56.2 nM |  |  |  | 
GCCAGAGCAGGAUAUUCAGUAUCACACAUGAGGAUCACCCAUGUCUAUCGAAAGAUAGAGGGAGAAGGGCUCUGGC [Mat - Exclusion 5 - Eli mod - D95] (puzzle: Exclusion 5) | 28.4 nM | 105 nM | 118 nM |  |  | 
GCCAGUGCAGGAUAUCUAUAACCCUACAUGAGGAUCACCCAUGUCCAGCGAAAGCUGGAGGGAGAAGGGCACUGGC [Fiskers Ex 5 - 27] (puzzle: Exclusion 5) | 15.5 nM | 17.6 nM | 21.5 nM |  |  | 
GCCAUGUAAGGAUAUAACCGUCUUCAUGAACAAUGAGGAUGUUAGAAGGUACAUGAGGAUCACCCAUGUCCUUC [Eternabot (Original) Solution 6] (Eterna round: R97, puzzle: Exclusion 4) |  |  |  | 15.7 nM | 12.5 nM | 
GCCGAAAGUGUGAGGAUAUACCUAUGGAUACAUAGGUAGAAGGCACAUGAGGAUCACCCAUGUUCCUCAUCGGC [Eli bmx4 4.17] (Eterna round: R97, puzzle: Brourd's mod of Exclusion 4) |  |  |  | 551 nM | 92.8 nM | 
GCCGUCAGUGUGAGGAUAUGCCUAUGGAUACGUAGGCAGAAGGCACAUGAGGAUCACCCAUGUCCUAAGACGGC [JL-BMX4-4.33 Eli mod] (Eterna round: R97, puzzle: Brourd's mod of Exclusion 4) |  |  |  | 146 nM | 190 nM | 
GCCUCACAUGAGGAUCACCCAUGUCAGGAUAUCUAAGGCGAAGUGCAAGCACCUCGUGAGAGAAGGGACGUCAA [Dienononen] (puzzle: Exclusion 1) |  | 20.9 nM |  |  |  | 
GCCUCACUUGAGGAUCACCCAAGUCAGGAUAUUCACUGAACUGCGUAACAGCUCGGCCGAAGAAGGGAUUCGGG [Leisatat] (Eterna round: R97, puzzle: Exclusion 1) |  |  |  | 80.8 nM | 78.5 nM | 
GCCUUAUCUGUCAGGAUAUACAAUAAAAUAACUUUGUAGAAGGGACAUGAGGAUCACCCAUGUACAUUACAUUG [alecazam24b] (Eterna round: R97, puzzle: Brourd's mod of Exclusion 4) |  |  |  | 63.1 nM | 24.6 nM | 
GCGCACCUACCAAAAGGUAGGUCAACAUGAGGAUCACCCAUGUAGGAUAUCGAUUGCUUUGCAGUCGAGAAGGACGUGAUGCGC [JL ENG3 3.80 Mod 15] (Eterna round: R96, puzzle: Exclusion NG 3) |  |  |  | 38 nM | 34.3 nM | 24.5 nM
GCGGACAAGAUGGUGACAUCAGAGACAUGAGGAUCACCCAUGUAGGAUAUCGAUUCGAAACGAAUCGAGAAGGGCAUAGUCCGC [JL denovo 3] (Eterna round: R96, puzzle: Exclusion NG 3) |  |  |  | 460 nM | 224 nM | 190 nM
GCGGAGUAUGUAGGAUAUCGGUCAGUUUCUGAUCGAGAAGGACAUGAGGAUCACCCAUGUAAAUUGCCCGCUUUGUGGGUCCGC [JL ENG1 3.61] (Eterna round: R96, puzzle: Exclusion NG 1) |  |  |  | 36.5 nM | 17.8 nM | 13.2 nM
GCGUAUGAGCAGGAUAUCCCGCGGGAAUCCAUAGGAGAAGGGCUCACAUGAGGAUCACCCAUGUGGUCCAGAAA [Isisan] (puzzle: Exclusion 6) | 20.2 nM | 16.1 nM | 18 nM |  |  | 
GCUACUCCAGUCAGGAUAUGGAUCGGCUAAAAGACCCAGAAGGGACUUGAGGAUCACCCAAGUAACGGCUCGGG [Soveare] (Eterna round: R97, puzzle: Brourd's mod of Exclusion 4) |  |  |  | 378 nM | 54.2 nM | 
GCUAGAGCAGGAUAUCUAGAUCCACACAUGAGGAUCACCCAUGUAGUCGAAAGACUAAGAAGAGAAGGGCUCUAGC [Omei Ex5 E16] (Eterna round: R97, puzzle: Exclusion 5) |  |  |  | 322 nM | 324 nM | 
GCUCAACAUGAGGAUCACCCAUGUCAGGAUAUGCGAAUUUCAUCAAAAGAUGAAAUUUGCAGAAGGGACUAAGC [Omei Ex1 A32] (Eterna round: R97, puzzle: Exclusion 1) |  |  |  | 114 nM | 52.6 nM | 

Sequence | apparent KD of MS2 coat protein [1] | apparent KD of MS2 coat protein [2] | apparent KD of MS2 coat protein [3] | apparent KD of MS2 coat protein (input ligand: FMN 200 uM) | apparent KD of MS2 coat protein (input ligand: none) | apparent KD of MS2 coat protein [4]
GCUCAACAUGAGGAUCACCCAUGUGAGGAUAUGCGAAUUUCAUCAAAAGAUGAAAUUUGCAGAAGGCACUGAGC [Omei Ex1 A35] (Eterna round: R97, puzzle: Exclusion 1) |  |  |  | 17.4 nM | 16.5 nM | 
GCUCACGCAGGAUAUACAUGAGGAUCACCCAUGUUCGAAGGGCGCGGGUACAAAGUCUGUAGAAGGGCGAAAAU [Getiin] (Eterna round: R97, puzzle: Exclusion 3) |  |  |  | 26.1 nM | 19.8 nM | 
GCUGCAAAUGUAGGAUAUCUGCACGUUUAGUGCAGAGAAGGACAUGAGGAUCACCCAUGUAGAUCAGCAGCAAUUAAUUUAAUU [ENG1/5-A2] (Eterna round: R96, puzzle: Exclusion NG 1) |  |  |  | 480 nM | 45.2 nM | 40.8 nM
GCUGGUCAAGGAUAUACAUGAGGAUCACCCAUGUGAUCAGCAGUCCUCGGACUGCAAUGUAGAAGGUGACCAGC [E3/1-C1] (Eterna round: R97, puzzle: Exclusion 3) |  |  |  | 29.3 nM | 458 nM | 
GCUGGUCGAGGAUAUACAUUCGUGCUUCGGCACGUAAGAUCACAUGAGGAUCACCCAUGUAGAAGGCGACCAGC [E2/5-A1] (Eterna round: R97, puzzle: Exclusion 2) |  |  |  | 930 nM | 112 nM | 
GCUUAACAUGAGGAUCACCCAUGUUAGGAUAUGCGAACUCGUAAGAUGCAGGGAGAUUGCAGAAGGAACGUGGC [EX1 C.15] (Eterna round: R97, puzzle: Exclusion 1) |  |  |  | 22 nM | 18.2 nM | 
GCUUGCUUUUUGGUUUUCAACAUGAGGAUCACCCAUGUUCGUCUUGUGCCCGGGCCCGGGCGGUGCCCGGGCCCGGG [A 9%] (Eterna round: R97, puzzle: Sensor, turn-off variant 1) |  |  |  | 17.9 nM | 17.8 nM | 
GCUUGUGGGCAAGGAUAUCCUACGCUGUUCUGGUUCGUGUCUGUCACAUGAGGAUCACCCAUGUGGGAGAAGGUGCAUUUGGGU [Design 58] (Eterna round: R96, puzzle: Exclusion NG 2) |  |  |  | 17.7 nM | 20.9 nM | 21.2 nM
GCUUGUGGGCAAGGAUAUCCUACGUUGUUCUGGUUCGUGUCUGUCACAUGAGGAUCACCCAUGUGGGAGAAGGUGCAUUUGGUG [Design 61] (Eterna round: R96, puzzle: Exclusion NG 2) |  |  |  |  |  | 12.9 nM
GCUUUUGGGCAAGGAUAUCCUGCGCGGUUCCGGUUCGUGUCUGUCACAUGAGGAUCACCCAUGUGGGAGAAGGUGCCUGUGGUG [Design 72] (Eterna round: R96, puzzle: Exclusion NG 2) |  |  |  | 28.3 nM | 18.4 nM | 13.6 nM
GGAAAAGCAGGAUAUACAUGAGGAUCACCCAUGUAGGCUCGCCGAGACGUGGAUGGACGUAGAAGGGCUAUUCC [Eternabot (L1) Solution 65] (Eterna round: R97, puzzle: Exclusion 3) |  |  |  | 121 nM | 28.9 nM | 
GGAAGGAGAGGAUAUGAGGGAGAGAACAUGAGGAUCACCCAUGUGAGACCUCAGGAUCGAUCAGAAGGCUCAGUCC [AK-MS2ROC-r4-exclusion5-12] (Eterna round: R97, puzzle: Exclusion 5) |  |  |  | 692 nM | 232 nM | 
GGAAGGUGAGGAUAUACUAAGCCGGAAACGGCAGGUGGGAGACAUGAGGAUCACCCAUGUAGAAGGCACGGAGA [AK-MS2ROC-r4-exclusion2-18] (Eterna round: R97, puzzle: Exclusion 2) |  |  |  | 703 nM | 113 nM | 
GGAAUACAUGAGGAUCACCCAUGUAAGGAUAUGCUGAAUAUCACGGAAUAAACGUGCAGCAGAAGGUACAAAGG [Mat - Mod of my Eli Mod D46] (puzzle: Exclusion 1) | 103 nM | 65.9 nM | 93.6 nM |  |  | 
GGACAUUCGGUAAGGAUAUUGACCCAACCUAGGAUCAAGAAGGUACAUGAGGAUCACCCAUGUCAGAUCCGUCA [Eternabot (Original) Solution 34] (Eterna round: R97, puzzle: Brourd's mod of Exclusion 4) |  |  |  | 27.4 nM | 16 nM | 
GGACCGCGGCAAGGAUAUCUUUGUCAACAUAAAACAUGAGGAUCACCCAUGUGCAUCUUCGUGUGAGAGAAGGUGCGGCAGUCC [Isisgeri] (Eterna round: R96, puzzle: Exclusion NG 2) |  |  |  | 222 nM | 127 nM | 113 nM
GGAGCAAUGGAGGAUAUCAGGAGCGCUGCUUACUGAGAAGGCCGUACAUGAGGAUCACCCAUGUCUGGGUACGC [Eternabot (L1) Solution 21] (Eterna round: R97, puzzle: Exclusion 6) |  |  |  | 176 nM | 167 nM | 
